This is an account of results in patent US20150057236.

B1: human Sirt1 (protein)
chain: MADEAALALQPGGSPSAAGADREAASSPAGEPLRKRPRRDGPGLERSPGEPGGAAPEREVPAAARGCPGAAAAALWREAEAEAAAAGGEQEAQATAAAGEGDNGPGLQGPSREPPLADNLYDEDDDDEGEEEEEAAAAAIGYRDNLLFGDEIITNGFHSCESDEEDRASHASSSDWTPRPRIGPYTFVQQHLMIGTDPRTILKDLLPETIPPPELDDMTLWQIVINILSEPPKRKKRKDINTIEDAVKLLQECKKIIVLTGAGVSVSCGIPDFRSRDGIYARLAVDFPDLPDPQAMFDIEYFRKDPRPFFKFAKEIYPGQFQPSLCHKFIALSDKEGKLLRNYTQNIDTLEQVAGIQRIIQCHGSFATASCLICKYKVDCEAVRGDIFNQVVPRCPRCPADEPLAIMKPEIVFFGENLPEQFHRAMKYDKDEVDLLIVIGSSLKVRPVALIPSSIPHEVPQILINREPLPHLHFDVELLGDCDVIINELCHRLGGEYAKLCCNPVKLSEITEKPPRTQKELAYLSELPPTPLHVSEDSSSPERTSPPDSSVIVTLLDQAAKSNDDLDVSESKGCMEEKPQEVQTSRNVESIAEQMENPDLKNVGSSTGEKNERTSVAGTVRKCWPNRVAKEQISRRLDGNQYLFLPPNRYIFHGAEVYSDSEDDVLSSSSCGSNSDSGTCQSPSLEEPMEDESEIEEFYNGLEDEPDVPERAGGAGFGTDGDDQEAINEAISVKQEVTDMNYPSNKS
B1: in the data set with H3K9 acetyl peptide, the Km for acetyl peptide was 38 µM, the “hydrolysis of acyl peptide (LC-MS)” value is reported as “Sirt1 catalyzed the hydrolysis of the acetyl peptide”, the turnover number (kcat) worked out at 0.039 s⁻¹ and the kcat/Km (s^-1M^-1) came to 1000 s^-1M^-1. Also, in the data set with H3K9 malonyl peptide, the “hydrolysis of acyl peptide (LC-MS)” value was “but not the malonyl and succinyl peptides”. Further, in the data set with H3K9 succinyl peptide, the “hydrolysis of acyl peptide (LC-MS)” value was “but not the malonyl and succinyl peptides”.

B2: human Sirt2 (protein)
chain: MAEPDPSHPLETQAGKVQEAQDSDSDSEGGAAGGEADMDFLRNLFSQTLSLGSQKERLLDELTLEGVARYMQSERCRRVICLVGAGISTSAGIPDFRSPSTGLYDNLEKYHLPYPEAIFEISYFKKHPEPFFALAKELYPGQFKPTICHYFMRLLKDKGLLLRCYTQNIDTLERIAGLEQEDLVEAHGTFYTSHCVSASCRHEYPLSWMKEKIFSEVTPKCEDCQSLVKPDIVFFGESLPARFFSCMQSDFLKVDLLLVMGTSLQVQPFASLISKAPLSTPRLLINKEKAGQSDPFLGMIMGLGGGMDFDSKKAYRDVAWLGECDQGCLALAELLGWKKELEDLVRREHASIDAQSGAGVPNPSTSASPKKSPPPAKDEARTTEREKPQ
As for B2, in the data set with H3K9 acetyl peptide, the Km for acetyl peptide stood at 190 µM, the kcat came out at 0.03 s⁻¹ and the kcat/Km (s^-1M^-1) was 160 s^-1M^-1.

B3: human Sirt3 (protein)
chain: ISFSVGASSVVGSGGSSDKGKLSLQDVAELIRARACQRVVVMVGAGISTPSGIPDFRSPGSGLYSNLQQYDLPYPEAIFELPFFFHNPKPFFTLAKELYPGNYKPNVTHYFLRLLHDKGLLLRLYTQNIDGLERVSGIPASKLVEAHGTFASATCTVCQRPFPGEDIRADVMADRVPRCPVCTGVVKPDIVFFGEPLPQRFLLHVVDFPMADLLLILGTSLEVEPFASLTEAVRSSVPRLLINRDLVGPLAWHPRSRDVAQLGDVVHGVESLVELLGWTEEMRDLVQRETGKLDGPDK
For B3, in the data set with H3K9 acetyl peptide, the Km for acetyl peptide amounted to 50 µM, the catalytic constant (kcat) worked out at 0.012 s⁻¹ and the kcat/Km (s^-1M^-1) was found to be 240 s^-1M^-1.

B4: human Sirt7 (protein)
chain: MAAGGLSRSERKAAERVRRLREEQQRERLRQVSRILRKAAAERSAEEGRLLAESADLVTELQGRSRRREGLKRRQEEVCDDPEELRGKVRELASAVRNAKYLVVYTGAGISTAASIPDYRGPNGVWTLLQKGRSVSAADLSEAEPTLTHMSITRLHEQKLVQHVVSQNCDGLHLRSGLPRTAISELHGNMYIEVCTSCVPNREYVRVFDVTERTALHRHQTGRTCHKCGTQLRDTIVHFGERGTLGQPLNWEAATEAASRADTILCLGSSLKVLKKYPRLWCMTKPPSRRPKLYIVNLQWTPKDDWAALKLHGKCDDVMRLLMAELGLEIPAYSRWQDPIFSLATPLRAGEEGSHSRKSLCRSREEAPPGDRGAPLSSAPILGGWFGRGCTKRTKRKKVT
Take B4: the “hydrolysis of acyl peptide (LC-MS)” value with H3K9 acetyl peptide was “Sirt6 and Sirt7 have no detectable activity on acetyl, malonyl, or succinyl peptides under the conditions tested”; in the data set with H3K9 malonyl peptide, “Sirt6 and Sirt7 have no detectable activity on acetyl, malonyl, or succinyl peptides under the conditions tested”; with H3K9 succinyl peptide, “Sirt6 and Sirt7 have no detectable activity on acetyl, malonyl, or succinyl peptides under the conditions tested”.

As a reminder, the kcat is the maximal rate divided by the concentration of active sites.
